Data taken from patent US20210388087A1 (Chugai, published 2021).
Substitutions are numbered along the chain they refer to.

B1: CE115HA000/GLS3000 R54S (antibody, IgG1, name in Kabat numbering, V domains shown)
VH: QVQLVESGGGVVQPGRSLRLSCAASGFTFSNAWMHWVRQAPGKGLEWVAQIKAKSNNYATYYAESVKGRFTISRDDSKNSLYLQMNSLKTEDTAVYYCRYVHYGAYYGVDAWGQGTTVTVSS
VL: DIVMTQSPLSLPVTPGEPASISCRSSQSLVHSNRNTYLHWYQQKPGQAPRLLIYKVSNSFSGVPDRFSGSGSGTDFTLKISRVEAEDVGVYYCGQGTQVPYTFGQGTKLEIK
notes: one-arm IgG1
B2: CE115HA000/GLS3000 S27eG (antibody, IgG1, name in Kabat numbering, V domains shown)
VH: B1 VH
VL: B1 VL with S32G, S59R
notes: one-arm IgG1
B3: CE115HA000/GLS3000 S27aP (antibody, IgG1, name in Kabat numbering, V domains shown)
VH: B1 VH
VL: B1 VL with S28P, S59R
notes: one-arm IgG1
B4: CE115HA000/GLS3000 S25P (antibody, IgG1, name in Kabat numbering, V domains shown)
VH: B1 VH
VL: B1 VL with S25P, S59R
notes: one-arm IgG1
B5: CE115HA000/GLS3000 R77S (antibody, IgG1, name in Kabat numbering, V domains shown)
VH: B1 VH
VL: B1 VL with S59R, R82S
notes: one-arm IgG1
B6: CE115HA000/GLS3000 S27aE (antibody, IgG1, name in Kabat numbering, V domains shown)
VH: B1 VH
VL: B1 VL with S28E, S59R
notes: one-arm IgG1
B7: CE115HA000/GLS3000 S27eD (antibody, IgG1, name in Kabat numbering, V domains shown)
VH: B1 VH
VL: B1 VL with S32D, S59R
notes: one-arm IgG1
B8: CE115HA000/GLS3000 S27aD (antibody, IgG1, name in Kabat numbering, V domains shown)
VH: B1 VH
VL: B1 VL with S28D, S59R
notes: one-arm IgG1
B9: CE115HA000/GLS3000 S27eN (antibody, IgG1, name in Kabat numbering, V domains shown)
VH: B1 VH
VL: B1 VL with S32N, S59R
notes: one-arm IgG1
B10: CE115HA000/GLS3000 S25L (antibody, IgG1, name in Kabat numbering, V domains shown)
VH: B1 VH
VL: B1 VL with S25L, S59R
notes: one-arm IgG1
B11: CE115HA000/GLS3000 S25T (antibody, IgG1, name in Kabat numbering, V domains shown)
VH: B1 VH
VL: B1 VL with S25T, S59R
notes: one-arm IgG1
B12: CE115HA000/GLS3000 S25M (antibody, IgG1, name in Kabat numbering, V domains shown)
VH: B1 VH
VL: B1 VL with S25M, S59R
notes: one-arm IgG1
B13: CE115HA000/GLS3000 R54T (antibody, IgG1, name in Kabat numbering, V domains shown)
VH: B1 VH
VL: B1 VL with S59T
notes: one-arm IgG1
B14: CE115HA000/GLS3000 S27eL (antibody, IgG1, name in Kabat numbering, V domains shown)
VH: B1 VH
VL: B1 VL with S32L, S59R
notes: one-arm IgG1
B15: CE115HA000/GLS3000 S25V (antibody, IgG1, name in Kabat numbering, V domains shown)
VH: B1 VH
VL: B1 VL with S25V, S59R
notes: one-arm IgG1
B16: CE115HA000/GLS3000 S27aN (antibody, IgG1, name in Kabat numbering, V domains shown)
VH: B1 VH
VL: B1 VL with S28N, S59R
notes: one-arm IgG1
B17: CE115HA000/GLS3000 S25E (antibody, IgG1, name in Kabat numbering, V domains shown)
VH: B1 VH
VL: B1 VL with S25E, S59R
notes: one-arm IgG1
B18: CE115HA000/GLS3000 S26D (antibody, IgG1, name in Kabat numbering, V domains shown)
VH: B1 VH
VL: B1 VL with S26D, S59R
notes: one-arm IgG1
B19: CE115HA000/GLS3000 S25A (antibody, IgG1, name in Kabat numbering, V domains shown)
VH: B1 VH
VL: B1 VL with S25A, S59R
notes: one-arm IgG1
B20: CE115HA000/GLS3000 S27eK (antibody, IgG1, name in Kabat numbering, V domains shown)
VH: B1 VH
VL: B1 VL with S32K, S59R
notes: one-arm IgG1
B21: CE115HA000/GLS3000 S26E (antibody, IgG1, name in Kabat numbering, V domains shown)
VH: B1 VH
VL: B1 VL with S26E, S59R
notes: one-arm IgG1
B22: CE115HA000/GLS3000 S25D (antibody, IgG1, name in Kabat numbering, V domains shown)
VH: B1 VH
VL: B1 VL with S25D, S59R
notes: one-arm IgG1
B23: CE115HA000/GLS3000 S27eH (antibody, IgG1, name in Kabat numbering, V domains shown)
VH: B1 VH
VL: B1 VL with S32H, S59R
notes: one-arm IgG1
B24: CE115HA000/GLS3000 S25I (antibody, IgG1, name in Kabat numbering, V domains shown)
VH: B1 VH
VL: B1 VL with S25I, S59R
notes: one-arm IgG1
B25: CE115HA000/GLS3000 S26P (antibody, IgG1, name in Kabat numbering, V domains shown)
VH: B1 VH
VL: B1 VL with S26P, S59R
notes: one-arm IgG1
B26: CE115HA000/GLS3000 S27aI (antibody, IgG1, name in Kabat numbering, V domains shown)
VH: B1 VH
VL: B1 VL with S28I, S59R
notes: one-arm IgG1
B27: CE115HA000/GLS3000 S27eM (antibody, IgG1, name in Kabat numbering, V domains shown)
VH: B1 VH
VL: B1 VL with S32M, S59R
notes: one-arm IgG1
B28: CE115HA000/GLS3000 S27eI (antibody, IgG1, name in Kabat numbering, V domains shown)
VH: B1 VH
VL: B1 VL with S32I, S59R
notes: one-arm IgG1
B29: CE115HA000/GLS3000 S27eE (antibody, IgG1, name in Kabat numbering, V domains shown)
VH: B1 VH
VL: B1 VL with S32E, S59R
notes: one-arm IgG1
B30: CE115HA000/GLS3000 S27aG (antibody, IgG1, name in Kabat numbering, V domains shown)
VH: B1 VH
VL: B1 VL with S28G, S59R
notes: one-arm IgG1
B31: CE115HA000/GLS3000 S27aY (antibody, IgG1, name in Kabat numbering, V domains shown)
VH: B1 VH
VL: B1 VL with S28Y, S59R
notes: one-arm IgG1
B32: CE115HA000/GLS3000 S27eF (antibody, IgG1, name in Kabat numbering, V domains shown)
VH: B1 VH
VL: B1 VL with S32F, S59R
notes: one-arm IgG1
B33: CE115HA000/GLS3000 R54W (antibody, IgG1, name in Kabat numbering, V domains shown)
VH: B1 VH
VL: B1 VL with S59W
notes: one-arm IgG1

Molecular target: T1, CD3 epsilon homodimer protein (UniProt P07766 23-126)
T1 construct: also called CD3 (CD3 epsilon)
Test: SPR, antibody over immobilised CD3e homodimer;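 also: SPR at 25 °C with CD3 epsilon homodimer amine-coupled to a CM4 sensor chip and antibody flowed over as analyte in HBS-EP+ running buffer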
Procedure: An appropriate amount of CD3 epsilon homodimer protein was immobilized onto Sensor chip CM4 (GE Healthcare Japan Corp.) by the amine coupling method. Then, the antibody having an appropriate concentration was injected thereto as an analyte and allowed to interact with the CD3 epsilon homodimer protein on the sensor chip. Then, the sensor chip was regenerated by the injection of 10 mmol/L glycine-HCl (pH 1.5). The assay was conducted at 25 degrees C., and HBS-EP+(GE Healthcare Japan Corp.) was used as a running buffer. […] Each parameter was calculated using Biacore T200 Evaluation Software (GE Healthcare Japan Corp.).

T1 sequence (P07766 23-126): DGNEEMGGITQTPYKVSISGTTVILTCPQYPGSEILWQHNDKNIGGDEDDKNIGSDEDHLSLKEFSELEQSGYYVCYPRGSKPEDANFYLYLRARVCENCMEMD

Binder	KD ratio to GLS3000
B1	0.78
B2	1.03
B3	1.01
B4	0.79
B5	0.94
B6	0.94
B7	1.23
B8	0.94
B9	1.01
B10	4.93
B11	0.75
B12	1.6
B13	0.89
B14	1.06
B15	0.74
B16	0.98
B17	8.54

Binder	KD ratio to GLS3000
B18	1.06
B19	0.73
B20	1.32
B21	0.9
B22	8.86
B23	1.09
B24	0.67
B25	0.67
B26	0.87
B27	1.11
B28	1.05
B29	1.04
B30	0.8
B31	0.93
B32	1.16
B33	0.65
